From patent US20250295571A1, “COMPOSITIONS AND METHODS FOR STIMULATION OF HAIR GROWTH” (THE REGENTS OF THE UNIVERSITY OF CALIFORNIA, priority 2022, published 2025)

Tests used:
[1] = system: anagen HFs; experiment: Intradermal microinjection of protein in mice starting at P48, induced anagen HFs counted on day 14; type: in vivo, mouse; conditions: intradermally microinjected for four days starting at P48; compared on day 14 to BSA; n=7
Text: (§1) FIGS. 2A-2I. SCUBE3 induces hair growth. (2A) Expression of pan-isoform Scube3 mRNA in dorsal mouse skin at indicated postnatal time points. (2B) Time course analysis of dorsal hair growth patterns in representative control (top) and Scube3^−/− mice (bottom) between days P24-30. Mice were shaved before each round of photography. (2C) Representative images of microinjection sites for BSA (top) and rhSCUBE3 (bottom). Affi-gel blue agarose beads are visible. Newly growing anagen HFs are pigmented. (2D) Quantification of induced anagen HFs in response to rhSCUBE3 on day 14. n=7; *** P<0.0002. (2E) Representative images of microinjection sites for BSA (left) and rhSCUBE3 (right) on 20-month-old mice. Affi-gel blue agarose beads are visible. Newly growing anagen HFs are pigmented. (2F) Quantification of induced anagen HFs in aged mice on day 14 after protein injection. n=9; * P<0.0001. (2G) Expression of K14, KI67 and SCUBE3 mRNA in human anagen occipital scalp HF. SCUBE3 mRNA is specifically and highly expressed in DP and adjacent dermal sheath cup. (2H) Representative images of microinjection sites for BSA and rhSCUBE3 in human occipital scalp HF-on-SCID mouse xenograft model. (2I) Scattered plot of human and mouse anagen HF quantification. Striped dots represent rhSCUBE3-injected samples and solid dots represent BSA-injected samples. Tissue sections were counterstained with DAPI in 2A, 2G. […]

[2] = system: anagen HFs; experiment: Intradermal protein microinjection in aged mice over 20 months of age, induced anagen HFs on day 14; type: in vivo, mouse; conditions: day 14 after protein injection, n=9
Text: as §1

[3] = system: grafted human occipital scalp HFs; experiment: Human occipital scalp HF-on-SCID mouse xenograft model, grafted human HFs; type: in vivo; conditions: three daily doses on post-grafting day 30; counted on post-grafting day 50; compared to BSA (n=5), rhSCUBE3 n=6
Text: as §1, with “SCUBE3 mRNA is specifically and highly expressed in DP and adjacent dermal sheath cup. (2H) Representative images of microinjection sites for BSA and rhSCUBE3 in human occipital scalp HF-on-SCID mouse xenograft model.” left out, “quantification.” for “quantification. Striped dots represent rhSCUBE3-injected samples and solid dots represent BSA-injected samples. Tissue sections were counterstained with DAPI in 2A, 2G.”
(§2) To start evaluating the translational potential of SCUBE3, first we examined its expression pattern in human anagen HFs from occipital scalp of volunteer donors, undergoing autologous hair transplantation procedures. […] Anagen phase human and adjacent mouse host HFs were then counted at each injection site on post-grafting day 50. […]

[4] = system: mouse host HFs; experiment: Human occipital scalp HF-on-SCID mouse xenograft model, adjacent mouse host HFs; type: in vivo; conditions: three daily doses on post-grafting day 30; counted on post-grafting day 50; compared to BSA (n=5), rhSCUBE3 n=6
Text: as §1, with “SCUBE3 mRNA is specifically and highly expressed in DP and adjacent dermal sheath cup. (2H) Representative images of microinjection sites for BSA and rhSCUBE3 in human occipital scalp HF-on-SCID mouse xenograft model.” left out, “quantification.” for “quantification. Striped dots represent rhSCUBE3-injected samples and solid dots represent BSA-injected samples. Tissue sections were counterstained with DAPI in 2A, 2G.”
as §2

B1: rhSCUBE3: recombinant human SCUBE3 (Signal Peptide, CUB Domain And EGF Like Domain Containing 3) protein (protein, listed as Homo sapiens)
chain: CGGELGEFTGYIESPNYPGNYPAGVECIWNINPPPKRKILIVVPEIFLPSEDECGDVLVMRKNSSPSSITTYETCQTYERPIAFTARSRKLWINFKTSEANSARGFQIPYVTYDEDYEQLVEDIVRDGRLYASENHQEILKDKKLIKAFFEVLAHPQNYFKYTEKHKEMLPKSFIKLLRSKVSSFLRPYK
new hair growth (induced anagen HFs), mean difference compared to BSA [1]: 18+/−3.44 | new hair growth at the injection sites (induced anagen HFs), mean difference vs BSA [2]: 31.78+/−2.40 | anagen entry of grafted human HFs [3]: accelerated anagen entry of grafted human HFs | new anagen of mouse host HFs [4]: stimulated new anagen of mouse host HFs
